Laboratory results reported in patent US20040143859A1 (SANKYO, published 2004).

Target: the molecule itself
Assay: SDS-PAGE, reducing (60 KD) against non-reducing (120 KD)
Procedure: The two protein peaks (6 and 7) with OCIF activity were subjected to SDS-polyacrylamide gel electrophoresis under reducing and non-reducing conditions. Briefly, 20 μl of each peak fraction was concentrated under vacuum and dissolved in 1.5 μl of 10 mM Tris-HCl, pH 8, 1 mM EDTA, 2.5% SDS, 0.01% bromophenol blue, and incubated at 37° C. overnight under non-reducing conditions or under reducing conditions (with 5% of 2-mercaptoethanol). Each 1.0 μl of sample was then analyzed by SDS-polyacrylamide gel electrophoresis with a gradient gel of 10-15% acrylamide (Pharmacia Co.) and an electrophoresis-device (Fast System, Pharmacia Co.). The following molecular weight marker proteins were used to calculate molecular weight:phosphorylase b (94 kD), bovine serum albumin (67 kD), ovalbumin (43 kD), carbonic anhydrase (30 kD), trypsin inhibitor (20.0 kD), and lactalbumin (14.4 kD). After electrophoresis, protein bands were visualized by silver stain using Phast Silver Stain Kit.

B1: osteoclastogenesis inhibitory factor (OCIF), natural, purified from conditioned medium of human fibroblast IMR-90 (other)
chain: ETFPPKYLHYDEETSHQLLCDKCPPGTYLKQHCTAKWKTVCAPCPDHYYTDSWHTSDECLYCSPVCKELQYVKQECNRTHNRVCECKEGRYLEIEFCLKHRSCPPGFGVVQAGTPERNTVCKRCPDGFFSNETSSKAPCRKHTNCSVFGLLLTQKGNATHDNICSGNSESTQKCGIDVTLCEEAFFRFAVPTKFTPNWLSVLVDNLPGTKVNAESVERIKRQHSSQEQTFQLLKLWKHQNKDQDIVKKIIQDIDLCENSVQRHIGHANLTFEQLRSLMESLPGKKVGAEDIEKTIKACKPSDQILKLLSLWRIKNGDQDTLKGLMHALKHSKTYHFPKTVTQSLKKTIRFLHSFTMYKLYQKLFLEMIGNQVQSVKISCL
modifications: N-terminus blocked (the filing says the N-terminal residue may be converted to pyroglutamine); N-linked sugar chains
notes: Secreted glycoprotein found as a 60 kD monomer and a 120 kD homodimer; also called nOCIF; natural OCIF
binding result: binds
